Consider 1 molecule from patent EP1664122B1 (Novartis AG, dated 2010).

Experiment [1] deals with T1, cynomolgus monkey CD45 on the T cell line HSC-F (cynomolgus monkey, UniProt A0A2K5VQ76 26-1301).
T1 construct: whole, on cells; also called cynomolgus HSC-F cell target
T1 sequence: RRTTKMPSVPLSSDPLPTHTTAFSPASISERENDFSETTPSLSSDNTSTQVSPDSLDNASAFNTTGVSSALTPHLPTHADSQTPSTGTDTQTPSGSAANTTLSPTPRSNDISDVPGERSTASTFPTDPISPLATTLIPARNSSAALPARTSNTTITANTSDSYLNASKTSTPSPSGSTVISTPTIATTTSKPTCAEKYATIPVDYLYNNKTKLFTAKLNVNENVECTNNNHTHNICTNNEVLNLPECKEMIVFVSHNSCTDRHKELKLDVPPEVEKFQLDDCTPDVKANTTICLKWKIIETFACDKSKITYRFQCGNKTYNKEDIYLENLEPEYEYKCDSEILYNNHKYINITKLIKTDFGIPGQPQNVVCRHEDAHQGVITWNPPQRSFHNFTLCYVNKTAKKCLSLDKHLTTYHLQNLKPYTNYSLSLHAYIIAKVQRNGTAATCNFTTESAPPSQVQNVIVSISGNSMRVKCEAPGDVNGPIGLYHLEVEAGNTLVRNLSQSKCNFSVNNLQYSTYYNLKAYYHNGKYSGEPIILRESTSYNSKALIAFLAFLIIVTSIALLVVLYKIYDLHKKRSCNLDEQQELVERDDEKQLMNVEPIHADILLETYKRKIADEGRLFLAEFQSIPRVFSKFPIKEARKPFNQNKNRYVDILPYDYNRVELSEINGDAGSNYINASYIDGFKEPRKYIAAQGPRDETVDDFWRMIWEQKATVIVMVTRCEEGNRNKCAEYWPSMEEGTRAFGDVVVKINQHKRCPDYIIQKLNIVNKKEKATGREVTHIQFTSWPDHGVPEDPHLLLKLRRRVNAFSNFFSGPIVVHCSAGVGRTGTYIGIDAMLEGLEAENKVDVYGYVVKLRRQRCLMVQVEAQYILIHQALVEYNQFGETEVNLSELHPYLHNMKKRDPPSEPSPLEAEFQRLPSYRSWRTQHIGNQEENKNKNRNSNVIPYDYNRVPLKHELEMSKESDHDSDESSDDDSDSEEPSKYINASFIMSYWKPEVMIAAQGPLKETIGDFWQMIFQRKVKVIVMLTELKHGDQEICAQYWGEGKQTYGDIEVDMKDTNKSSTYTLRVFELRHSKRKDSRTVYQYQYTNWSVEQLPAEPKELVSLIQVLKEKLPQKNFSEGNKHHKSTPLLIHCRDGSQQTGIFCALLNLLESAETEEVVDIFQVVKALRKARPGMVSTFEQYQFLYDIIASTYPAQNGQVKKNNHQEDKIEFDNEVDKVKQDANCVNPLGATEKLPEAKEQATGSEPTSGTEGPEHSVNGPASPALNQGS
The experiment in a line: FACS competition with FITC-conjugated mA6 on HSC-F cells; curve fit assuming divalent antibody binding.

In experiment [2] the target is human CD45 on the human T cell line PEER (human) (UniProt P08575). The experiment in a line: FACS competition with FITC-conjugated mA6 on PEER cells; curve fit assuming divalent antibody binding.

B1: humanised antibody VHE-N73D/humV1 (antibody, V domains shown)
VH: EVQLVESGAEVKKPGASVKVSCKASGYTFTNYIIHWVKQEPGQGLEWIGYFNPYNHGTKYNEKFKGRATLTADKSISTAYMELSSLRSEDTAVYYCARSGPYAWFDTWGQGTTVTVSS
VL: DILLTQSPATLSLSPGERATLSCRASQNIGTSIQWYQQKPGQAPRLLIRSSSESISGIPSRFSGSGSGTDFTLTISSLEPEDFAVYYCQQSNTWPFTFGQGTKLEIK
notes: Constant parts are human gamma-1 and human kappa; expressed in Sp2/0 cells; also called VHEN73D/VL1; VHEN73D/VLh
For B1, the Kd in experiment [1] stood at 1.67 nM; in experiment [2] it was 2.44 nM.

Usually Kd stands for the free concentration of one partner at which half of the binding sites on the other are occupied at equilibrium, for simple one-to-one binding.
